Biological target: prefusion conformation-stabilized SARS-CoV-2 spike ectodomain (S2P_(ecto)) with AviTag and 8x-His tag (SARS-CoV-2) (UniProt P0DTC2)
Assay: ELISA

For “COV2-2130 (human mAb, recombinant IgG1) (antibody)”, which percent inhibition of hACE2 binding to S2P (ecto) at 500 ng/mL is on record?
The percent inhibition of hACE2 binding to S2P (ecto) at 500 ng/mL was 100%.
